# Results published in US20230000998A1.
# Biological target: human TrkB receptor (overexpressed on TrkB-NFAT-bla CHO-K1 reporter cells) (human) (UniProt Q16620)
# Test: cell-based or functional assay
# Sequence of human TrkB receptor (overexpressed on TrkB-NFAT-bla CHO-K1 reporter cells) (human) (Q16620 32-822): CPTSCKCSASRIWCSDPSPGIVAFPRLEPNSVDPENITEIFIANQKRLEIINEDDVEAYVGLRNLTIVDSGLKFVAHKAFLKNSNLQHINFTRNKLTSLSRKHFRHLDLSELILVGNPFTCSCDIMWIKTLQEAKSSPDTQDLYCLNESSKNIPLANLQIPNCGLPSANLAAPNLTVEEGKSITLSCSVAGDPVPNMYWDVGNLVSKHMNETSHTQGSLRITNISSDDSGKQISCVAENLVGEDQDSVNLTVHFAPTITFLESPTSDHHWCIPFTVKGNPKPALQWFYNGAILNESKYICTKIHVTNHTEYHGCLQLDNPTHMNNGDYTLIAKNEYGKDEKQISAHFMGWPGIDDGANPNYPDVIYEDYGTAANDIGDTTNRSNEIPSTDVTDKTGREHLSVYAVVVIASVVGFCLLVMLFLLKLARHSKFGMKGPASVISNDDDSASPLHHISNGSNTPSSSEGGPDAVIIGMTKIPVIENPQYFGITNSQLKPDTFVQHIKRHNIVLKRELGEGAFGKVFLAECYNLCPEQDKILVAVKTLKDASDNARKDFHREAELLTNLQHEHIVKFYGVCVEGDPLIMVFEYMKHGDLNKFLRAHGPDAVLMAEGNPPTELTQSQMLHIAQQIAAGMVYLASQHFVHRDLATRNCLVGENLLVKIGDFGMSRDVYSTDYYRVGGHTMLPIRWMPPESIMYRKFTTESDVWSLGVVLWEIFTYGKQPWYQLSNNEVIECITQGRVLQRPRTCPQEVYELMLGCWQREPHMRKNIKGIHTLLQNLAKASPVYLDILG
substance,measurement,value
BDNF (brain derived neurotrophic factor; Peprotech) (from UniProt P23560 129-247) (ligand),EC50 of beta-lactamase reporter response in TrkB-NFAT-bla CHO-K1 cells,0.055 nM
